Assay [1] addresses PKA-phosphorylated full-length Tau (Homo sapiens) (UniProt P10636). The assay can be described thus: SPR Biacore 2000, bivalent IgG1 analyte, ~824 RU PKA-phospho Tau, ligand density 2. On the technique in general: Surface plasmon resonance follows binding to a sensor surface in real time, without labels.
Assay [2] has the same target. The experiment in a line: ELISA: plate coated with 0.1 µg/ml PKA-phosphorylated full-length Tau, IgG titrated 0.06 pM to 1 nM, anti-human Fc-peroxidase/TMB, absorbance 450 nm [panel B]. (In an ELISA, binding on a coated surface is turned into a signal by an enzyme label.)
For assay [3] the target is unchanged. The experiment in a line: ELISA: plate coated with 1 µg/ml PKA-phosphorylated full-length Tau, IgG titrated 0.06 pM to 1 nM, anti-human Fc-peroxidase/TMB, absorbance 450 nm [panel A].
The next assay deals with T1, Non-phospho. (not fully specified; printed as Biotin - linker - GDTSPRHLSNVSSTGSID; reading uncertain).
T1 construct: also called non-phosphorylated biotinylated Tau 401-418 peptide
T1 peptide: {Biotin-linker}-GDTSPRHLSNVSSTGSID
The experiment in a line: ELISA: plate coated with 5 µg/ml IgG, 10 nM biotinylated peptide in solution, streptavidin-peroxidase/TMB, absorbance 450 nm. The protocol: FIG. 3. Binding of immobilized IgG antibodies to Tau-derived biotinylated peptides containing pS404 and/or pS409 as measured by ELISA. […] 10 nM of the biotinylated peptides shown in FIG. 3, and 5 μg/ml IgG, were used.
Specificity of the top five clones for phosphoserine 404 and phosphoserine 409 was also assessed by ELISA. In one experiment (FIG. 3), Nunc maxisorp microplates were coated with 5 μg/ml IgG in coating buffer (sodium carbonate pH9.6) for 70 minutes at ambient temperature. Non-specific binding sites were blocked with BBT for a minimum of 2 hours then the plates washed and 10 nM biotinylated peptide in BBT added. After 1.5 hours bound peptide was detected by a 65 minute incubation with peroxidase-conjugated Streptavidin and detection with TMB as described above. […] The peptides synthesized and used in this experiment (which correspond to amino acids 401-418 of full-length Tau) have the following amino acid sequences (Table B): […]

The target of assay [4] is PKA-phosphorylated full-length Tau (Homo sapiens) (UniProt P10636). The assay can be described thus: SPR Biacore 2000, bivalent IgG1 analyte, ~153 RU PKA-phospho Tau, ligand density 1.

No end group written: not given here. *: point of attachment. Biotin = O=C1N[C@H]2[C@H](CS[C@H]2CCCCC(=O)*)N1; linker = not defined here

Chain of PKA-phosphorylated full-length Tau (Homo sapiens) (P10636 other isoform, or with tags, fused parts or gaps limits assumed): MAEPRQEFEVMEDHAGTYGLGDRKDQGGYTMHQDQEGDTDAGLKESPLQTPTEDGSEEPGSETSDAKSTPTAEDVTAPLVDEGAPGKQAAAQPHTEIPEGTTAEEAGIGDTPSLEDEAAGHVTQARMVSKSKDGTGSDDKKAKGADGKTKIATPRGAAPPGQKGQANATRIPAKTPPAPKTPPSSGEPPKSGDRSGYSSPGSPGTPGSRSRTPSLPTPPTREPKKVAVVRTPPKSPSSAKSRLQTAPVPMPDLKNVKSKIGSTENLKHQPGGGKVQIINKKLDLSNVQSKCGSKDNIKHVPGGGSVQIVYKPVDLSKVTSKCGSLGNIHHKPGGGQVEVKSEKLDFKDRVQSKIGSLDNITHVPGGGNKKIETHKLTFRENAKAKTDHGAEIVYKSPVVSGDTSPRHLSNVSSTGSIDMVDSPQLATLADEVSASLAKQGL

B1: TAM20 IgG1 (antibody, V domains shown)
VH: EVQLVQSGAEVKKPGSSVKVSCKASGYTFTDYYMNWVRQAPGQGLEWIGDINPNRGGTTYNQKFKGRVTITVDKSTSTAYMELSSLRSEDTAVYYCASYYAVGYWGQGTTVTVSS
VL: DIVMTQTPLSLPVTPGEPASISCRSSQSLVHSHGRTYLHWYLQKPGQSPQLLIYKVSNRFFGVPDRFSGSGSGTDFTLKISRVEAEDVGVYFCSQTRHFPYTFGGGTKVEIKR
The koff is the rate constant with which the complex falls apart. Read a low koff as slow dissociation. One may read the kon as the rate constant with which the complex forms. Low values mean slower complex formation, high ones faster complex formation. What is called EC50 (read off the curve) is the concentration needed to bring the measured effect to its halfway point. A lower EC50 (read off the curve) goes with greater potency. In assay [1], B1 came in with a Kd of 0.2 nM, a koff of 0.0003 s⁻¹ and an on-rate constant (kon) of 1.6e+06 M⁻¹ s⁻¹. The molecule further displayed an EC50 (read off the curve) in assay [2] of 0.02 nM. The EC50 (read off the curve) in assay [3] came to 0.006 nM. In addition, the binding result with Non-phospho. was “no binding (tested: 10 nM)”. In assay [4], this molecule registered a Kd of 0.8 nM, a koff of 0.0012 s⁻¹ and a kon of 1.6e+06 M⁻¹ s⁻¹.

The values above are taken from patent US20160024193A1 (AC IMMUNE S A, published 2016).
